Measured values published in US6284879A, “Transport associated protein splice variants” (The General Hospital Corporation, priority 1998, dated 2001).

Test system: HLA class I (A2) on T2 cells
Assay: restoration of surface expression of HLA class I (A2) on transfected T2 cells, flow cytometry
Type: cell-based, human
Details: T2 cells transfected with the named cDNAs; for Mean fluorescence of HLA class 1 (A2) Mean ± SD: four separate experiments, at least three stable clones; for surface expression of HLA/MHC class I: in words
Description: Plasmid DNAs were prepared using MAXI-PREP kits (Qiagen). TAP1- and TAP2-deficient T2 cells (donated by P. Cresswell, Howard Hughes Medical Institute, Yale University) (1-2×10^7 cells/ml) were transfected by electroporation with 10 μg of TAP1 and TAP2 or TAP2iso linear plasmid DNA in a 0.4-cm cuvette at 260 V and 960 μF. Subcloning and selection of transfectants were performed by culturing in the presence of hygromycin (250 μg/ml) or histidinol ([…]) for the PREP 4 and PREP8 vectors, respectively.
Immune complexes were detected with fluorescein isothiocyanate-conjugated goat anti-mouse IgG antibodies (Coulter, Hialeah, Fla.) and an Epics Elite flow cytometer (Coulter).
T2 cells were transfected with TAP1 cDNA in combination with TAP2 or TAPiso cDNAs as described above.

B1: TAP1: known TAP1 subunit (TAP1 A allele cDNA) (protein)
chain: MASSRCPAPRGCRCLPGASLAWLGTVLLLLADWVLLRTALPRIFSLLVPTALPLLRVWAVGLSRWAVLWLGACGVLRATVGSKSENAGAQGWLAALKPLAAALGLALPGLALFRELISWGAPGSADSTRLLHWGSHPTAFVVSYAAALPAAALWHKLGSLWVPGGQGGSGNPVRRLLGCLGSETRRLSLFLVLVVLSSLGEMAIPFFTGRLTDWILQDGSADTFTRNLTLMSILTIASAVLEFVGDGIYNNTMGHVHSHLQGEVFGAVLRQETEFFQQNQTGNIMSRVTEDTSTLSDSLSENLSLFLWYLVRGLCLLGIMLWGSVSLTMVTLITLPLLFLLPKKVGKWYQLLEVQVRESLAKSSQVAIEALSAMPTVRSFANEEGEAQKFREKLQEIKTLNQKEAVAYAVNSWTTSISGMLLKVGILYIGGQLVTSGAVSSGNLVTFVLYQMQFTQAVEVLLSIYPRVQKAVGSSEKIFEYLDRTPRCPPSGLLTPLHLEGLVQFQDVSFAYPNRPDVLVLQGLTFTLRPGEVTALVGPNGSGKSTVAALLQNLYQPTGGQLLLDGKPLPQYEHRYLHRQVAAVGQEPQVFGRSLQENIAYGLTQKPTMEEITAAAVKSGAHSFISGLPQGYDTEVDEAGSQLSGGQRQAVALARALIRKPCVLILDDATSALDANSQLQVEQLLYESPERYSRSVLLITQHLSLVEQADHILFLEGGAIREGGTHQQLMEKKGCYWAMVQAPADAPE
For B1, the “Mean fluorescence of HLA class 1 (A2) Mean ± SD” value was 5.19 ± .35 and the “surface expression of HLA/MHC class I” value was “no effect”.

B2: TAP1/TAP2: previously known TAP transporter, heterodimer of the TAP1 and TAP2 gene products (protein)
chain 1: MASSRCPAPRGCRCLPGASLAWLGTVLLLLADWVLLRTALPRIFSLLVPTALPLLRVWAVGLSRWAVLWLGACGVLRATVGSKSENAGAQGWLAALKPLAAALGLALPGLALFRELISWGAPGSADSTRLLHWGSHPTAFVVSYAAALPAAALWHKLGSLWVPGGQGGSGNPVRRLLGCLGSETRRLSLFLVLVVLSSLGEMAIPFFTGRLTDWILQDGSADTFTRNLTLMSILTIASAVLEFVGDGIYNNTMGHVHSHLQGEVFGAVLRQETEFFQQNQTGNIMSRVTEDTSTLSDSLSENLSLFLWYLVRGLCLLGIMLWGSVSLTMVTLITLPLLFLLPKKVGKWYQLLEVQVRESLAKSSQVAIEALSAMPTVRSFANEEGEAQKFREKLQEIKTLNQKEAVAYAVNSWTTSISGMLLKVGILYIGGQLVTSGAVSSGNLVTFVLYQMQFTQAVEVLLSIYPRVQKAVGSSEKIFEYLDRTPRCPPSGLLTPLHLEGLVQFQDVSFAYPNRPDVLVLQGLTFTLRPGEVTALVGPNGSGKSTVAALLQNLYQPTGGQLLLDGKPLPQYEHRYLHRQVAAVGQEPQVFGRSLQENIAYGLTQKPTMEEITAAAVKSGAHSFISGLPQGYDTEVDEAGSQLSGGQRQAVALARALIRKPCVLILDDATSALDANSQLQVEQLLYESPERYSRSVLLITQHLSLVEQADHILFLEGGAIREGGTHQQLMEKKGCYWAMVQAPADAPE
chain 2: MRLPDLRPWTSLLLVDAALLWLLQGPLGTLLPQGLPGLWLEGTLRLGGLWGLLKLRGLLGFVGTLLLPLCLATPLTVSLRALVAGASRAPPARVASAPWSWLLVGYGAAGLSWSLWAVLSPPGAQEKEQDQVNNKVLMWRLLKLSRPDLPLLVAAFFFLVLAVLGETLIPHYSGRVIDILGGDFDPHAFASAIFFMCLFSFGSSLSAGCRGGCFTYTMSRINLRIREQLFSSLLRQDLGFFQETKTGELNSRLSSDTTLMSNWLPLNANVLLRSLVKVVGLYGFMLSISPRLTLLSLLHMPFTIAAEKVYNTRHQEVLREIQDAVARAGQVVREAVGGLQTVRSFGAEEHEVCRYKEAKEQCRQLYWRRDLERALYLLIRRVLHLGVQMLMLSCGLQQMQDGELTQGSLLSFMIYQESVGSYVQTLVYIYGDMLSNVGAAEKVFSYMDRQPNLPSPGTLAPTTLQGVVKFQDVSFAYPNRPDRPVLKGLTFTLRPGEVTALVGPNGSGKSTVAALLQNLYQPTGGQVLLDEKPISQYEHCYLHSQVVSVGQEPVLFSGSVRNNIAYGLQSCEDDKVMAAAQAAHADDFIQEMEHGIYTDVGEKGSQLAAGQKQRLAIARALVRDPRVLILDEATSALDVQCEQALQDWNSRGDRTVLVIAHRLQTVQRAHQILVLQEGKLQKLAQL
B2 was tested, and the “Mean fluorescence of HLA class 1 (A2) Mean ± SD” value was 7.59 ± .31 and the “surface expression of HLA/MHC class I” value was “restored surface expression”.
